According to US20190389958A1, “ANTI-CXCR4 ANTIBODIES” (MSM Protein Technologies, Inc., priority 2017, published 2019):
Blank lines part the entries; values can stand above or below the molecule they belong to.

Assays:
RA1 cells = experiment: Antibody-dependent cell-mediated cytotoxicity (ADCC), LDH release (Example 10); type: cell-based, human; conditions: E:T ratio 20:1
Description: ADCC was measured with RA1 cells as the target cells (T) and using the CytoTox 96® Non-Radioactive Cytotoxicity Assay (Promega Corp., Fitchburg, Wis.)), which assay measures lactate dehydrogenase (LDH) release. A round-bottom 96-well culture plate was set up with the following control and experimental wells (100 microliter final volumes):
a. RA1 cells (for target cell spontaneous LDH release control) b. RA1 cells (for target cell maximum LDH release control) c. Culture medium (RPMI 1640 Medium (1X) without phenol red) used for volume correction control d. Culture medium (for culture medium background control) e. RA1 plus effector cells (E) (for target plus effector cell spontaneous LDH release control) f. Experimental wells with effector and target cells (10^5) with serial dilutions of each test IgG or without test IgG.
The plates were centrifuged at 1600 rpm for 2 minutes and incubated at 37° C. for 4 hours. One hour prior to supernatant harvest, 20 microliters of Lysis Solution (10×) were added to the conditions b) and c). The plates were centrifuged at 1600 rpm for 2 minutes, and 50 microliters of the supernatant from each well of the assay plates were transferred to corresponding wells of a flat-bottom 96-well enzymatic assay plate. Substrate Mix (50 microliters) was added to each well of the latter plate, and the plate (protected from light) was incubated for 30 minutes at room temperature. Finally, 50 microliters of Stop Solution were added to each well, and absorbance (OD values) was measured at 490 nm. Each condition was tested in triplicates.
Preliminary experiments had been conducted in order to determine the optimal E:T ratio. The data shown below were obtained at a 20:1 E:T ratio with 10^5 RA1 target cells. The effector cells used in this study were prepared as follows: human peripheral blood mononuclear cells (PBMCs) obtained from a healthy donor were isolated by means of density gradient centrifugation using Lymphocyte Separation Medium (ref. J15-004, Invitrogen Corp., Carlsbad, Calif.). PBMCs at 2×10^6 per mL were cultured for two days in RPMI 1640 with 10% FCS, penicillin/streptomycin and 100 units per mL of human recombinant IL-2 (obtained from Roussel-Uclaf) in a 37° C. humidified incubator (5% CO2).
ADCC percentages obtained at different concentrations of test IgGs were calculated with the formula % ADCC=(f−e)/(b−a)×100, i.e., % ADCC=(OD of Target+Effector cells +/−Test Mab −OD of Spontaneous Release of Target+Effector cells)/(OD Maximal Release Target cells −OD Spontaneous Release of Target cells)×100.

hCCR7 = molecular target: T1, hCCR7 (Homo sapiens, UniProt P32248); experiment: Specificity for CXCR4, flow cytometry on GPCR over-expressing cells (Example 6); type: binding; conditions: cell line hCCR7; test IgG at 100 nM
T1 construct: expressed in transfected cells
T1 sequence (P32248 25-378): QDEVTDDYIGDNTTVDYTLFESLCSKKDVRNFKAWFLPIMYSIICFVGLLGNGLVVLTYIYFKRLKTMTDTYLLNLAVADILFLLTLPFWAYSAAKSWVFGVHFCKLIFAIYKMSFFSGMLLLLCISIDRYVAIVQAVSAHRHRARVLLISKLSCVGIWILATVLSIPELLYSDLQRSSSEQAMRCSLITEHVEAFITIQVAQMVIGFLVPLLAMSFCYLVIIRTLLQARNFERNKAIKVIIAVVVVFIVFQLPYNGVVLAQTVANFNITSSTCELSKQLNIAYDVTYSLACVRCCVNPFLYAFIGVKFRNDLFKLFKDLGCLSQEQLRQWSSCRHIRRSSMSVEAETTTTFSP
Description: (§1) Cells over-expressing different GPCRs other than CXCR4 and several lines transfected to over-express CXCR4 (R1610-hCXCR4, Cf2Th-hCXCR4 and CHO-hCXCR4) were compared. Cultures were incubated with a test IgG at 100 nM in FACS buffer for 40 min at 4° C. Thereafter, cells were washed twice, stained with anti-human-Fc antibody-PE conjugate (Jackson Immunoresearch Laboratories Inc., West Grove, Pa.), washed twice in FACS buffer and then transferred to FIX buffer. Fluorescence intensities were measured by GUAVA PCA-96 at 425V (in triplicate).
(§2) The expression of GPCRs other than CXCR4 was confirmed using commercially available antibodies (positive controls). For example, a commercial anti-CXCR1 antibody was used as a positive control for confirming the expression of CXCR1 on the CXCR1-transfected CHO cells.

hCCR3 = molecular target: T2, hCCR3 (Homo sapiens, UniProt P51677); experiment: as above; type: binding; conditions: cell line hCCR3; test IgG at 100 nM
T2 construct: expressed in transfected cells
T2 sequence (P51677 1-355): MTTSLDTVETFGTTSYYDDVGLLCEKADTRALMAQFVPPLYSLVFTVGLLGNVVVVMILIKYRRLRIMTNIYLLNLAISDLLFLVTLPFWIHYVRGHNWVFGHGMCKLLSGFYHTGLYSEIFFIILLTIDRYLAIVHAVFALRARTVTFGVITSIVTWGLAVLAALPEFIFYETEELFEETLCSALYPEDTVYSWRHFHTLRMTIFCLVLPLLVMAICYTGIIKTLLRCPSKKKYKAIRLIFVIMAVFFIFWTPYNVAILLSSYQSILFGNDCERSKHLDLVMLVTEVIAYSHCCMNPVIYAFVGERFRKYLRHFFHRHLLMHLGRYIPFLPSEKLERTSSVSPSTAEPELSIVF
Description: as §1, §2

MFI (hCCR7): 25
B1: V62.1-R108H-m80: matured anti-CXCR4 antibody; LCVR SEQ ID NO 13, HCVR SEQ ID NO 19 (antibody, V domains shown)
VH: EVQLLESGGGLVQPGGSLRLSCAASGFTISPYSITWVRQAPGKGLEWVSQINSYNGKTYYADSVKGRFTISRDNSKNTLYLQMNSLRAEDTAVYYCARQGKTRVYGYHWHGYGSTHALDYWGQGTLVTVSS
VL: EIVLTQSPGTLSLSPGERATLSCRASQSVSSSYLAWYQQKPGQAPRLLIYGASSRATGIPDRFSGSGSGTDFTLTISRLEPEDFAVYYCQQSDYSYPFTFGQGTKVEIKRT
modifications: heavy chain variable region HCVR, variant 5; light chain variable region LCVR, variant 1
ADCC percentage (RA1 cells; 0.0001 μg/mL): 9% | ADCC percentage (RA1 cells; 0.001 μg/mL): 16% | ADCC percentage (RA1 cells; 0.01 μg/mL): 45% | ADCC percentage (RA1 cells; 0.1 μg/mL): 59% | ADCC percentage (RA1 cells; 1 μg/mL): 55%

MFI (hCCR3): 40
B2: V62.1-R108H-m47-m38: matured anti-CXCR4 antibody; LCVR SEQ ID NO 14, HCVR SEQ ID NO 18 (antibody, V domains shown)
VH: EVQLLESGGGLVQPGGSLRLSCAASGFTFSSYAMSWVRQAPGKGLEWVSAISGSGGTRYADSVKGRFTISRDNSKNTLYLQMNSLRAEDTAVYYCARQGKTRVYGYHWHGYGSTHALDYWGQGTLVTVSS
VL: EIVLTQSPGTLSLSPGERATLSCRASQSVSSSYLAWYQQKPGQAPRLLIYGASSRATGIPDRFSGSGSGTDFTLTISRLEPEDFAVYYCQQWSSDSVTFGQGTKVEIKRT
modifications: heavy chain variable region HCVR, variant 4; light chain variable region LCVR, variant 2
ADCC percentage (RA1 cells; 0.0001 μg/mL): 14% | ADCC percentage (RA1 cells; 0.001 μg/mL): 36% | ADCC percentage (RA1 cells; 0.01 μg/mL): 50% | ADCC percentage (RA1 cells; 0.1 μg/mL): 51% | ADCC percentage (RA1 cells; 1 μg/mL): 55%

B3: V62.1-R108H-m43-m38: matured anti-CXCR4 antibody; LCVR SEQ ID NO 14, HCVR SEQ ID NO 17 (antibody, V domains shown)
VH: EVQLLESGGGLVQPGGSLRLSCAASGFTFSSYAMSWVRQAPGKGLEWVSAISGSGGGSTRYADSVKGRFTISRDNSKNTLYLQMNSLRAEDTAVYYCARQGKTRVYGYHWHGYGSTHALDYWGQGTLVTVSS
VL: EIVLTQSPGTLSLSPGERATLSCRASQSVSSSYLAWYQQKPGQAPRLLIYGASSRATGIPDRFSGSGSGTDFTLTISRLEPEDFAVYYCQQWSSDSVTFGQGTKVEIKRT
modifications: heavy chain variable region HCVR, variant 3; light chain variable region LCVR, variant 2
ADCC percentage (RA1 cells; 0.0001 μg/mL): 8% | ADCC percentage (RA1 cells; 0.001 μg/mL): 19% | ADCC percentage (RA1 cells; 0.01 μg/mL): 40% | ADCC percentage (RA1 cells; 0.1 μg/mL): 42% | ADCC percentage (RA1 cells; 1 μg/mL): 54%
